Series [1] deals with the molecule itself. Nature of the series: cryo-EM structure; single-particle cryo-EM of full-length wild-type Drg1, 1.75 mg/ml, with 2 mM ATPγS and 200 µg/ml (740 µM) thieno-diazaborine 2b18; 20 mM HEPES-KOH, 150 mM KOAc, 5 mM Mg(OAc)2, 0.005% Tween-20, 1 mM DTT, pH 7.6; no symmetry imposed.
In series [2] the target is T1, GST-Rlp24C fragment (C-terminal fragment of the substrate protein Rlp24) (yeast, UniProt Q07915 147-199).
T1 construct: Rlp24, shuttling ribosome maturation factor of yeast, C-terminal fragment Rlp24C; The GST fusion was immobilised in SPR; also called Rlp24C-domain; source: purified
T1 sequence (looked up): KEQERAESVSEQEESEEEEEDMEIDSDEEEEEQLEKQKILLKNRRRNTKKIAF
Nature of the series: SPR; Biacore X100; 200 RU GST-Rlp24C amine-coupled on a CM5 chip, GST alone in the reference cell; 2 µM Drg1 with 1 mM ATPγS injected with or without 200 µg/ml diazaborine; 120 s association, 180 s dissociation; 20 mM HEPES-KOH, 150 mM KOAc, 5 mM Mg(OAc)2, 0.1% Tween-20, 1 mM DTT, pH 6.8; half-life from one-phase exponential decay. Particulars: both partners purified. (Surface plasmon resonance follows binding to a sensor surface in real time, without labels.)

B1: Drg1 (AAA-ATPase), full-length wild type (enzyme, yeast, UniProt P32794 1-780, looked up)
chain: MAPKSSSSGSKKKSSASSNSADAKASKFKLPAEFITRPHPSKDHGKETCTAYIHPNVLSSLEINPGSFCTVGKIGENGILVIARAGDEEVHPVNVITLSTTIRSVGNLILGDRLELKKAQVQPPYATKVTVGSLQGYNILECMEEKVIQKLLDDSGVIMPGMIFQNLKTKAGDESIDVVITDASDDSLPDVSQLDLNMDDMYGGLDNLFYLSPPFIFRKGSTHITFSKETQANRKYNLPEPLSYAAVGGLDKEIESLKSAIEIPLHQPTLFSSFGVSPPRGILLHGPPGTGKTMLLRVVANTSNAHVLTINGPSIVSKYLGETEAALRDIFNEARKYQPSIIFIDEIDSIAPNRANDDSGEVESRVVATLLTLMDGMGAAGKVVVIAATNRPNSVDPALRRPGRFDQEVEIGIPDVDARFDILTKQFSRMSSDRHVLDSEAIKYIASKTHGYVGADLTALCRESVMKTIQRGLGTDANIDKFSLKVTLKDVESAMVDIRPSAMREIFLEMPKVYWSDIGGQEELKTKMKEMIQLPLEASETFARLGISAPKGVLLYGPPGCSKTLTAKALATESGINFLAVKGPEIFNKYVGESERAIREIFRKARSAAPSIIFFDEIDALSPDRDGSSTSAANHVLTSLLNEIDGVEELKGVVIVAATNRPDEIDAALLRPGRLDRHIYVGPPDVNARLEILKKCTKKFNTEESGVDLHELADRTEGYSGAEVVLLCQEAGLAAIMEDLDVAKVELRHFEKAFKGIARGITPEMLSYYEEFALRSGSSS
notes: Drg1, hexameric type II AAA-ATPase of yeast (N-domain, D1 and D2 AAA-domains), full-length wild type; the atomic model covers amino acids 239-780 of each of the six monomers; Hexamer in the presence of nucleotide (ATPγS); also called Drg1 wild type; wild-type Drg1; source: overexpressed in yeast as GST-Drg1, purified (GSH-agarose, eluted by Prescission protease cleavage from the GST-tag)
On to B1, for which, in series [1], the “stoichiometry N” value was 6. Also, the “fold slower dissociation with diazaborine against without” value in series [2] was 2 fold.

A word on the stoichiometry N: it is the number of molecules, sites or subunits per partner or assembly.

These data come from paper PMC8190095, “Structural basis for inhibition of the AAA-ATPase Drg1 by diazaborine” (Nature Communications, 2021).
